Our source for the GeoMean, Internalization, EC50 and GEOmean values is US20240101687A1.

The target in test [1] is human IGF1R on cells (human) (UniProt P08069). The test is described as follows: FACS on MCF-7 cells, 10 ug/mL (2nd Ab only: 2.86).
In test [2] the target is human IGF1R extracellular domain, His-tagged (human) (UniProt P08069). The test can be described thus: ELISA on ECD of IGF1R. Background: An ELISA detects its analyte on a solid surface through an enzyme-linked reagent.
For test [3], the target named is human IGF1R on cells (human) (UniProt P08069). The test can be described thus: FACS on MCF-7 cells (2nd Ab only: 2.92).

B1: Hu3A9-C04 (bispecific antibody, part only; not given: Hu3A9 heavy and light chains, part only)
heavy, part: GGGGSGGGGSGGGGSQSVLTQPPSASGTPGQRVTISCTGSSSNIGSNDVSWYQQLPGTAPKLLIYANSNRPSGVPDRFSGSKSGTSASLAISGLRSEDEADYYCGAWEQWLNGYVFGCGTKLTVLGGGGSGGGGSGGGGSGGGGSEVQLLESGGGLVQPGGSLRLSCAASGFTFSSYDMSWVRQAPGKLEWVSAISYDNGNTYYADSVKGRFTISRDNSKNTLYLQMNSLRAEDTAVYYCAKGVLTTLMNWFDYWGQGTLVTVSS
Consider B1, for which the GeoMean, Internalization at 37° C. in test [1] was 7.23. For the same molecule, the EC50 (as a rule, the concentration needed to bring the measured effect to its halfway point) in test [2] was determined as 107 pM. Moreover, the GEOmean in test [3] came out at 3.88.

B2: Hu3A9-1564 (bispecific antibody, part only; not given: Hu3A9 heavy and light chains, part only)
heavy, part: GGGGSGGGGSGGGGSQSVLTQPPSASGTPGQRVTISCTGSSSNIGSNDVSWYQQLPGTAPKLLIYANSNRPSGVPDRFSGSKSGTSASLAISGLRSEDEADYYCGAWDDSLNGYVFGCGTKLTVLGGGGSGGGGSGGGGSGGGGSEVQLLESGGGLVQPGGSLRLSCAASGFTFSSYDMSWVRQAPGKCLEWVSAISYDNGNTYYADSVKGRFTISRDNSKNTLYLQMNSLRAEDTAVYYCAKGVLTTLMNWFDYWGQGTLVTVSS
B2 came in with a GeoMean, Internalization at 37° C. in test [1] of 7.72. In test [2], this molecule yielded an EC50 of 144 pM.

B3: Hu3A9-A02 (bispecific antibody, part only; not given: Hu3A9 heavy and light chains, part only)
heavy, part: GGGGSGGGGSGGGGSQSVLTQPPSASGTPGQRVTISCTGSSSNIGSNDVSWYQQLPGTAPKLLIYANSNRPSGVSDRFSGSKSGTSASLAISGLRSEDEADYYCGAWDTTLNGYVFGGGTKLTVLGGGGSGGGGSGGGGSGGGGSEVQLLESGGGLVQPGGSLRLSCAASGFTFSSYDMSWVRQAPGKGLEWVSAISYDNGNTYYADSVKGRFTISRDNSKNTLYLQMNSLRAEDTAVYYCAKGVLTTLMNWFDYWGQGTLVTVSS
In test [2], B3 yielded an EC50 of 130 pM.

B4: Hu3A9-B01 (bispecific antibody, part only; not given: Hu3A9 heavy and light chains, part only)
heavy, part: GGGGSGGGGSGGGGSQSVLTQPPSASGTPGQRVTISCTGSSSNIGSNDVSWYQQLPGTAPKLLIYANSNRPSGVSDRFSGSKSGTSASLAISGLRSEDEADYYCGAWDDSLNGYVFGGGTKLTVLGGGGSGGGGSGGGGSGGGGSEVQLLESGGGLVQPGGSLRLSCAASGFTFSSYDMSWVRQAPGKGLEWVSAISWDKAQPYYADSVKGRFTISRDNSKNTLYLQMNSLRAEDTAVYYCAKGVLTTLMNWFDYWGQGTLVTVSS
For the molecule B4, the EC50 in test [2] came to 145 pM.

B5: Hu3A9-B10 (bispecific antibody, part only; not given: Hu3A9 heavy and light chains, part only)
heavy, part: GGGGSGGGGSGGGGSQSVLTQPPSASGTPGQRVTISCTGSSSNIGSNDVSWYQQLPGTAPKLLIYANSNRPSGVSDRFSGSKSGTSASLAISGLRSEDEADYYCGSWDVSLNGYVFGGGTKLTVLGGGGSGGGGSGGGGSGGGGSEVQLLESGGGLVQPGGSLRLSCAASGFTFSSYDMSWVRQAPGKGLEWVSAISYDNGNTYYADSVKGRFTISRDNSKNTLYLQMNSLRAEDTAVYYCAKGVLTTLMNWFDYWGQGTLVTVSS
As to B5, the concentration giving a half-maximal response (EC50) in test [2] came out at 156 pM. This EC50 and that of the molecule before are within 1.5-fold of each other.

B6: hu3A9 × 1564_F06 (bispecific antibody, part only; not given: hu3A9 heavy and light chains, part only)
heavy, part: GGGGSGGGGSGGGGSQSVLTQPPSASGTPGQRVTISCTGSSSNIGSNDVSWYQQLPGTAPKLLIYANSNRPSGVPDRFSGSKSGTSASLAISGLRSEDEADYYCGTWAGSLNGYVFGCGTKLTVLGGGGSGGGGSGGGGSGGGGSEVQLLESGGGLVQPGGSLRLSCAASGFTFSSYDMSWVRQAPGKCLEWVSAISYDNGNTYYADSVKGRFTISRDNSKNTLYLQMNSLRAEDTAVYYCAKGVLTTLMNWFDYWGQGTLVTVSS
B6 gave a GeoMean, Internalization at 37° C. in test [1] of 19.8.

B7: Hu3A9-E09 (bispecific antibody, part only; not given: Hu3A9 heavy and light chains, part only)
heavy, part: GGGGSGGGGSGGGGSQSVLTQPPSASGTPGQRVTISCTGSSSNIGSNDVSWYQQLPGTAPKLLIYANSNRPSGVSDRFSGSKSGTSASLAISGLRSEDEADYYCGAWDDSLNGYVFGGGTKLTVLGGGGSGGGGSGGGGSGGGGSEVQLLESGGGLVQPGGSLRLSCAASGFTFSSYDMSWVRQAPGKGLEWVSAISWGQGKTYYADSVKGRFTISRDNSKNTLYLQMNSLRAEDTAVYYCAKGVLTTLMNWFDYWGQGTLVTVSS
As for B7, the EC50 in test [2] stood at 159 pM.
